Patent US20220143024A1, “METHODS OF USING IMIPRIDONES” (Board of Regents, The University of Texas System, priority 2019, published 2022)

How the values were obtained:
[1] = target: SUCLG2 (human) (UniProt Q96I99); experiment: BioID-MS
[2] = target: MRPL21 (human) (UniProt Q7Z2W9); experiment: BioID-MS

SUCLG2 (human), sequence (Q96I99 38-432 limits assumed): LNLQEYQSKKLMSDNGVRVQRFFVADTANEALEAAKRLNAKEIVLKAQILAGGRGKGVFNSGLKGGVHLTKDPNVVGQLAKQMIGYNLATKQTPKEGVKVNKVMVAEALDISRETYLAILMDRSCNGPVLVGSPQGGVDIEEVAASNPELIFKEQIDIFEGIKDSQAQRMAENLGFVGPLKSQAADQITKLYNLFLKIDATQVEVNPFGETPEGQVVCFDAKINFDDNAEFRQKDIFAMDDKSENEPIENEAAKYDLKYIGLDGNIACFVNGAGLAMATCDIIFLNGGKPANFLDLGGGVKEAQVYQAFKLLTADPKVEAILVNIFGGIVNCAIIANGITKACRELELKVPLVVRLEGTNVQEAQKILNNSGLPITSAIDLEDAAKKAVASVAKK

“FlagBirA-ClpP (Y118A) (from UniProt P06709 1-321; Q16740 57-277) (enzyme)” was tested. Which Log2 Fold change (vs control) [1] did it give?
The Log2 Fold change (vs control) was -0.49 log2.

What about the Log2 Fold change (vs control) [2] of the same substance?
The Log2 Fold change (vs control) was -0.72 log2.
